From the nanobody polyreactivity screen of Harvey et al. (2022)

Test: yeast display, Sf9 membrane polyspecificity reagent, FACS + sequencing; frameworks hold sequencing errors
Outline: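 Using colony PCR, genes from sorted yeast display clones were amplified, then sequenced on MiSeq at 2 × 250 and filtered by CDR length. The clones had been stained with 10% biotinylated, detergent-solubilized Sf9 membrane reagent for 1 hour at 4 °C and sorted by FACS into low and high (top ~1%) gates on anti-HA and streptavidin fluorescence. Polyreactivity labels come from the gate of origin.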

Row | Sequence | polyreactivity (PSR sort gate)
1 | QVHLVESGGGLVQAGGSLRLSCAASGGTFSVYGMGWYRPAPGKERELVAAITVTGGRTYYADSVKGRFTISRDNAKNTVYLQMNSLKPVDSAVYYCNTLPWSRTKRDYWGQGTQVTVSS | low polyreactivity
2 | QVHLVESGGGLVQAGGSLRLSCAASGIIFPSYAMGWYRQAPGKERELVAAIDGSGGITYYADSVKGRFTISRDNAKNTVYLQLNSLKPEDTAVYYCNAEREYYDYGNDDYWGPGTQVTVSS | low polyreactivity
3 | QVHLVESGGGLVQAGGSLRLSCAASGIIFYDNTMGWYRQAPGTERELVASITWRGGSTYYADSVKGRFTISRDNAKNTVYLQMNSLKPEDTAVYYCNADSSDDYDYWGQGTQVTVSS | low polyreactivity
4 | QVHLVESGGGLVQAGGSLRLSCAASGIIFYYYTMGWYRQPPGKERELVASISRDGGSTHYADSVKGRFTISRDNAKNTVYLQMNSLKPEDTAVYYCAARYPTGSSYAFYRRKVYYWGQGTQVTVSS | high polyreactivity
5 | QVHLVESGGGLVQAGGSLRLSCAASGITFAWYAMGRYRQAPGKERELVAAITRGGGSTYYADSVKGRFTISRDNAKNTGYLQMNSLKPEDTAVYYCAARPYSYPYGYWGQGTQVTVSS | low polyreactivity
6 | QVHLVESGGGLVQAGGSLRLSCAASGITFDLYAMGWYRQAPGKERELVAASTYYADSVKGRFTISRDNAKNTVYLQMNSLKPEDTAVYYCNTREPVTYDYWGQGTQVTVSS | high polyreactivity
7 | QVHLVESGGGLVQAGGSLRLSCAASGITFRRNAMGWYRQAPGKERELVARITVSGGTTYYADSVKGRFTISRDYAKNTVYLQMNSLKPEDTAVYYCAKVWHSSRVSPYDYWGQGTQVTVSS | low polyreactivity
8 | QVHLVESGGGLVQAGGSLRLSCAASGITFTRYNMGWYRQAPGKERELVASIRRSGSTNYADSVKGRFTISRDNAKNTVYLQMNSLKPEDTAVFYCAAVNYGYPKPYDYWGQGTQVTVSS | high polyreactivity
9 | QVHLVESGGGLVQAGGSLRLSCAASGLIFGDYAMGWYRQAPGKERELVAAITGSVTRRYYADSVKGRFTISRDNAKNTVYLQMNSLKPEDTAVYYCATVGYPYTLWHQMDYWGQGTQVTVSS | low polyreactivity
10 | QVHLVESGGGLVQAGGSLRLSCAASGLIFNIYAMGWYRQAPGKERELVAAISKSGGSTYYADSVKGRFTISRDNAKNTVYLQMNSLKPEDTAVYYCAVVRNSYRVLRLNYWGQGTQVTVSS | high polyreactivity
11 | QVHLVESGGGLVQAGGSLRLSCAASGLIFRRYAMGWYRQAPGKERELVAVISSGGRTYYADSVKGRFTISRDNAKNTVYLQMNSLKPEDTAVYYCAARTRSYWGTYGSYHYDYWGQGTQVTVSS | high polyreactivity
12 | QVHLVESGGGLVQAGGSLRLSCAASGLIFSDYAMGWYRQAPGKERELVAAIRSGGRTYYADSVKGRFTISRDNAKNTVYLQMNSLKPEDTAVYYCNKLYRRSPVPREYDYWGQGTQVTVSS | high polyreactivity
13 | QVHLVESGGGLVQAGGSLRLSCAASGLILSYNAMAWYRQAPGKERELDAAISYSGGSTYYADSVKGRFTITRDNAKNTVYLQMNSLITEDSAVYYCAAVWRRQGSAYLGSYGYDYWGQVTQVTVSS | high polyreactivity
14 | QVHLVESGGGLVQAGGSLRLSCAASGLTFHRYAMGWYRQAPGKERELVAAINYSGGRTYYADSVKGRFTISRDNAKNSVYLQMNCLKPEDTEVYYCAAPRASGYYWGQGTQGTVSS | high polyreactivity
15 | QVHLVESGGGLVQAGGSLRLSCAASGLTFWAYTLGWYRQAPGQERELVAAITSSGGRTYYADSVKGRFTISRDNAKNTVYLQMNSLKPEDTGVYYCNARIFRSPTPYDYWGQGTQVTVSS | high polyreactivity
16 | QVHLVESGGGLVQAGGSLRLSCAASGNTFQRYTMGWYRQAPGKERELVAAITWSGGNTYYADSVKGRFTISRDNEKNTVYLQMNSLKPEDTAVYYCNADYPTTAYDYWGQGTQVTVSS | low polyreactivity
17 | QVHLVESGGGLVQAGGSLRLSCAASGRIFAGYGMGWYRQAPGKERELVAAISSGGSTYYADSVKGRFTISRDNAKNPVYLQINSLKPEDTAVYYCAADTYTYYDYMARYYYWGQGTQVTVSS | low polyreactivity
18 | QVHLVESGGGLVQAGGSLRLSCAASGRIFAYYTMGWNRQAPGKERELVARITKNGGSTYYAESVKGRFTISRDNAKNTVYLQMNSLKPEDTAVYYCNADSGYTGRRTRERYYYWGQGTQVTVSS | high polyreactivity
19 | QVHLVESGGGLVQAGGSLRLSCAASGRIFGFYAMALYRQSPGKEREFVASISVRGASTYADSVKGRFTISRDNAKNTVYLQMNSLKPEDTAVYYCNAYGRVSKRYGYWGQGTQVTVSS | high polyreactivity
20 | QVHLVESGGGLVQAGGSLRLSCAASGRIFGVNAMGWYRQAPGKERELVAAITWSGGSTYYADSVKGRFTISRDNAKITVYLEMNSLKPEDTAVYYCAVEGQFDDGWAWYDYWGQGTQVTVSS | high polyreactivity
21 | QVHLVESGGGLVQAGGSLRLSCAASGRIFGYYAMGWYRQAPGKERELVARISSSGGSTYYADSVKGRFTISRDNAKNTVYLQMNSLKPEDTAVYYCNTASNRYPGWRAEFDYWGQGTQVTVSS | low polyreactivity
22 | QVHLVESGGGLVQAGGSLRLSCAASGRIFQRNVMGWYRQAPGKERELVASITGGGTTNYADSVKGRFTISRDNAKNTVYLQMNSLKPEDTAVYYCAKGYGASNDPGYVRKRYGYWGQGTQVTVSS | low polyreactivity

Row | Sequence | polyreactivity (PSR sort gate)
23 | QVHLVESGGGLVQAGGSLRLSCAASGRIFTYYAMGWYRQAPGKERELVAAINSRGGRTYYADSVKGRFTISRDNAKNTVYLQMNSLKPEDTAVYYCNKAVYFAWGWGLRDYDYWGQGTQVTVSS | high polyreactivity
24 | QVHLVESGGGLVQAGGSLRLSCAASGRISHYNAMGWNRQAPGKERELVAAISSRGGSTYYADSVKGRFTISRDNAKNTVYLQMNSLKPEDTAVYFCAVRYWHWGKKITYDYWGQGTQVTVSS | high polyreactivity
25 | QVHLVESGGGLVQAGGSLRLSCAASGRISQNALGWYRQAPGKEREVVAAITFSGGSTYYADSVKGRFTISRDNATNTVYLQMNSLKPEDNAVYYCNVRLYTDGLKYDYWGQGTQVTVSS | low polyreactivity
26 | QVHLVESGGGLVQAGGSLRLSCAASGRIYAFYAMGWYRQAPGKERELVAAISSGGNTKYADSVKGRFTISRDNAKNTVYLQMNSLKPEYTAVFYCDARTPWYNKGDYWGLGTQVTVSS | low polyreactivity
27 | QVHLVESGGGLVQAGGSLRLSCAASGRLFGVYVMGWYRQAPGKERELVAAISWSGSHTYYADSVKGRFTISRDNAKNTVYLQMNSLKPEDTEVYYCNADSYPDYTGPGLDWYDYWGQGTQVTVSS | low polyreactivity
28 | QVHLVESGGGLVQAGGSLRLSCAASGRNFDNKAMGWYRQAPGKERELVATLSRNGGSTYYADSVKGRFTISRDNAKNTVYLQINRLKRDDTAVYYCNKRTRFIPSFDYWGQGTQVTVSS | low polyreactivity
29 | QVHLVESGGGLVQAGGSLRLSCAASGRPFSKYTMGWDRQAPGKERELVAVISRSGTRTYYADSVKGRFTISRDNAKNTVYLQMNSLKPEDTAVYYCAAKDERRSFGMGYWGQGTQVTVSS | high polyreactivity
30 | QVHLVESGGGLVQAGGSLRLSCAASGRTFANYAMGWYRQAPGKERELVAAISFSTVSTYYADSVKGRFTISRDNAKNTVYLQMNSLKPEDTAVYYCAARRLGYYRKVKELDYWGQGTQVTVSS | high polyreactivity
31 | QVHLVESGGGLVQAGGSLRLSCAASGRTFAYNTMGWYRQAPGKERELVAAISSDGSTNYADSVKGRFTISRDNAKNTVYLQMNSLKPEDTAVYYCAKGEGTGYSDTQVYEHDYWGQGTQVTVSS | low polyreactivity
32 | QVHLVESGGGLVQAGGSLRLSCAASGRTFCYNAMGWYRPAPGKERELVAAITSSGGGTSYADSVKGRFTISRDNAMNTVYLQMNSLKPEDTAVSYCARVRRYPLRYNYWGQGTQLTVSS | high polyreactivity
33 | QVHLVESGGGLVQAGGSLRLSCAASGRTFDHNTMGWYRQAPGKERELVAAISWSGGTTYYADSVKGRFTISRDNAKNTVYLQMNSLKPEDTAVYYCAADRSPGSYGYQYDYWGQGTQVTVSS | low polyreactivity
34 | QVHLVESGGGLVQAGGSLRLSCAASGRTFDVYAMGWYRQAPGKERELVATITDSGGNTYYADSVKGRFTISRDNAKNTVYLQMNSLKPEDTAVYYCAADRIYPYYRWSGAHRSDVDYWGQGTQVTVSS | low polyreactivity
35 | QVHLVESGGGLVQAGGSLRLSCAASGRTFENNAMGWYRPAPGKESELVAAITVSGGSTYYADSVKGRFTLSRDNAKNTVDLQMNSLKPEDTAVYYCAIVGFGIPGGFYYWGEGTQVTVSS | low polyreactivity
36 | QVHLVESGGGLVQAGGSLRLSCAASGRTFGYYAMGWYRQAPGKERELVAAITRTGGSTHYADSVKGRFTISRDNAKNTVYLQMNSLKPEDTAVYYCAADKRGTVYLSSFWMDYWGQGTQVTVSS | low polyreactivity
37 | QVHLVESGGGLVQAGGSLRLSCAASGRTFPPYAMGGYRQAPGKERELVAAISIVGSTYYADSVKGRFTISRDNAKNTVYLQMNSLKPEDTAVYYCAADVAGYYKLYDYWGQGTQVTVSS | high polyreactivity
38 | QVHLVESGGGLVQAGGSLRLSCAASGRTFPYNAMGWYRQAPGKERELVDAISSGGSTNYADSVKGRFTISRDNAKNTVYLQMNSLKPEDTAVYYCATKYQRRPYRYSYWGQGTQVTVSS | low polyreactivity
39 | QVHLVESGGGLVQAGGSLRLSCAASGRTFRRYAMGWYRQAPGKERELVAAISYNGGRTYYADSVKGRFTISRDNAKNSVYLQMNILKPEDTAVYYCNAERGFSDYWGQGTQVTVSS | high polyreactivity
40 | QVHLVESGGGLVQAGGSLRLSCAASGRTFVPYVMGWYRQAPGKERELVATINWSGGSTYYADSVKGLFTISRDNAKNTVYLQMNSLKPEDTAVYYCAARYYSDWFYYLFRYDYLGQGTQVTVSS | low polyreactivity
41 | QVHLVESGGGLVQAGGSLRLSCAASGRTFVRYAMGWYRQAPGKERELVARITARGTSTYYADSVKGRFTISRDNAKNTVYLQMNRLKPEDTAVYYCNKVRTFRDKSRYDYWGQGTQVTVSS | low polyreactivity
42 | QVHLVESGGGLVQAGGSLRLSCAASGRTFWYYAMGWYRPAPGKERELVAAITRTGGSTYYADSVKGRFTISRDYAKNTVYLQMNSLKPEDTAVYYCARKYSYPVVAPSDYYWGQGTQVTVSS | high polyreactivity
43 | QVHLVESGGGLVQAGGSLRLSCAASGRTFYDNAMVWYRQAPGKERELVAAISKRGSSTYYADSVKGRFTISRYTAKNSVYLEMNSLKPEDTAVYYCAADSLLGWSVEYWGKGTQVTVSS | high polyreactivity
